In patent publication US20250352667A1:
One block for each binder: values may come before it.

Columns and labels:
[1] = target: KEAP1 (wild-type full-length), His-tagged (human) (UniProt Q14145); test: AlphaScreen; 76.8 nM FLAG-NRF2, 150 nM His-KEAP1; Rep 1; control for I86V
[2] = target: KEAP1 (wild-type full-length), His-tagged (human) (UniProt Q14145); test: AlphaScreen; FLAG-NRF2 wt isoform 1 614.4 nM, His-KEAP1 150 nM; Rep 1; positive control for Q75R
[3] = target: KEAP1 (wild-type full-length), His-tagged (human) (UniProt Q14145); test: AlphaScreen; FLAG-NRF2 wt isoform 1 19.2 nM, His-KEAP1 150 nM; Rep 1; positive control for I86V
[4] = target: KEAP1 (wild-type full-length), His-tagged (human) (UniProt Q14145); test: AlphaScreen; 307.2 nM FLAG-NRF2, 150 nM His-KEAP1; Rep 1; control for I28V
[5] = target: KEAP1 (wild-type full-length), His-tagged (human) (UniProt Q14145); test: AlphaScreen; 2.4 nM FLAG-NRF2, 150 nM His-KEAP1; Rep 1; control for I28V
[6] = target: KEAP1 (wild-type full-length), His-tagged (human) (UniProt Q14145); test: AlphaScreen; 9.6 nM FLAG-NRF2, 150 nM His-KEAP1; signal against NRF2 only; control for I86V
[7] = target: KEAP1 (wild-type full-length), His-tagged (human) (UniProt Q14145); test: AlphaScreen; NRF2 wt isoform 1 153.6 nM, KEAP1 150 nM; signal against NRF2-only control; control for Q75R
[8] = target: KEAP1 (wild-type full-length), His-tagged (human) (UniProt Q14145); test: AlphaScreen; NRF2 wt isoform 1 2.4 nM, KEAP1 150 nM; signal against NRF2-only control; control for Q75R
[9] = target: KEAP1 (wild-type full-length), His-tagged (human) (UniProt Q14145); test: AlphaScreen; NRF2 wt isoform 1 38.4 nM, KEAP1 150 nM; set as the 100 % reference for Q75R
[10] = target: KEAP1 (wild-type full-length), His-tagged (human) (UniProt Q14145); test: AlphaScreen; NRF2 wt isoform 1 76.8 nM, KEAP1 150 nM; signal against NRF2-only control; control for Q75R
[11] = target: KEAP1 (wild-type full-length), His-tagged (human) (UniProt Q14145); test: AlphaScreen; 1228.8 nM FLAG-NRF2, 150 nM His-KEAP1; signal against NRF2 only; control for I28V
[12] = target: KEAP1 (wild-type full-length), His-tagged (human) (UniProt Q14145); test: AlphaScreen; FLAG-NRF2 wt isoform 1 19.2 nM, His-KEAP1 150 nM; Repeat 2; positive control for Q75R
[13] = target: KEAP1 (wild-type full-length), His-tagged (human) (UniProt Q14145); test: AlphaScreen, all variants on one plate; optimal condition (19.2 nM NRF2), KEAP1 150 nM; the reference itself
[14] = target: KEAP1 (wild-type full-length), His-tagged (human) (UniProt Q14145); test: AlphaScreen; 153.6 nM FLAG-NRF2, 150 nM His-KEAP1; Rep 2; control for I28V
[15] = target: KEAP1 (wild-type full-length), His-tagged (human) (UniProt Q14145); test: AlphaScreen; NRF2 I86V 2.4 nM, KEAP1 150 nM; signal against NRF2-only control
[16] = target: KEAP1 (wild-type full-length), His-tagged (human) (UniProt Q14145); test: AlphaScreen; NRF2 I86V 614.4 nM, KEAP1 150 nM; signal against NRF2-only control
[17] = target: KEAP1 (wild-type full-length), His-tagged (human) (UniProt Q14145); test: AlphaScreen; NRF2 I86V 38.4 nM, KEAP1 150 nM; relative to wild-type NRF2 isoform 1 (100 %)
[18] = target: KEAP1 (wild-type full-length), His-tagged (human) (UniProt Q14145); test: AlphaScreen; FLAG-NRF2 I86V 153.6 nM, His-KEAP1 150 nM; Rep 2
[19] = target: KEAP1 (wild-type full-length), His-tagged (human) (UniProt Q14145); test: AlphaScreen; FLAG-NRF2 I86V 4.8 nM, His-KEAP1 150 nM; Rep 2
[20] = target: KEAP1 (wild-type full-length), His-tagged (human) (UniProt Q14145); test: AlphaScreen; FLAG-NRF2 Q75R 9.6 nM, His-KEAP1 150 nM; Rep 2
[21] = target: KEAP1 (wild-type full-length), His-tagged (human) (UniProt Q14145); test: AlphaScreen; FLAG-NRF2 Q75R 2.4 nM, His-KEAP1 150 nM; Rep 1
[22] = target: KEAP1 (wild-type full-length), His-tagged (human) (UniProt Q14145); test: AlphaScreen; NRF2 Q75R 2.4 nM, KEAP1 150 nM; signal against NRF2-only control
[23] = target: KEAP1 (wild-type full-length), His-tagged (human) (UniProt Q14145); test: AlphaScreen; FLAG-NRF2 Q75R 9.6 nM, His-KEAP1 150 nM; Repeat 2
[24] = target: KEAP1 (wild-type full-length), His-tagged (human) (UniProt Q14145); test: AlphaScreen; 1228.8 nM FLAG-NRF2, 150 nM His-KEAP1; signal against NRF2 only
[25] = target: KEAP1 (wild-type full-length), His-tagged (human) (UniProt Q14145); test: AlphaScreen; 153.6 nM FLAG-NRF2, 150 nM His-KEAP1; signal against NRF2 only
[26] = target: KEAP1 (wild-type full-length), His-tagged (human) (UniProt Q14145); test: AlphaScreen; 38.4 nM FLAG-NRF2, 150 nM His-KEAP1 (same value as in Table 27)
[27] = target: KEAP1 (wild-type full-length), His-tagged (human) (UniProt Q14145); test: AlphaScreen; 19.2 nM FLAG-NRF2, 150 nM His-KEAP1 (same value as in Table 27)

Chain of KEAP1 (wild-type full-length), His-tagged (human) (Q14145 2-624 limits assumed): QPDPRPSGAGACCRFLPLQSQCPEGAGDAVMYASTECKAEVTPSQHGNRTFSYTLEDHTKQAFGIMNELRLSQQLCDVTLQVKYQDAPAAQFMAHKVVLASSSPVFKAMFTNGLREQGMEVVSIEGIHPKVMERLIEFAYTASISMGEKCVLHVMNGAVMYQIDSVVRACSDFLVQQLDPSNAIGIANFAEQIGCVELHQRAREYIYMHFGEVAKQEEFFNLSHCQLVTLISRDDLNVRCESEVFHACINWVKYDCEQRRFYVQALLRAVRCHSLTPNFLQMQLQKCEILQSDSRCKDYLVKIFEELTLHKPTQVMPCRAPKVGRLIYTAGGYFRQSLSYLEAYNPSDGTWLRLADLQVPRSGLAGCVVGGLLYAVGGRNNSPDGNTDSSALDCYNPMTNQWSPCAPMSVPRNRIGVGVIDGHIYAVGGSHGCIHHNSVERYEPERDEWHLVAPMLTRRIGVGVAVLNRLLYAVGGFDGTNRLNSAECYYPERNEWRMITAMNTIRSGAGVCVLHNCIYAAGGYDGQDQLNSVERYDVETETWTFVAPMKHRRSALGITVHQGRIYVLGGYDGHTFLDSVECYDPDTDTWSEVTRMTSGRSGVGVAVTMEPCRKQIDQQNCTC

A-counts [1]: 3020 A-counts
A-counts (NRF2 plus KEAP1) [2]: 1650 A-counts
A-counts (NRF2 plus KEAP1) [3]: 3300 A-counts
A-counts [4]: 1850 A-counts
A-counts [5]: 622 A-counts
S/N [6]: 3.6
S/N [7]: 2.1
S/N [8]: 1.4
Binding Percentage [9]: 100%
S/N [10]: 2.5
S/N [11]: 1
A-counts (NRF2 plus KEAP1) [12]: 1480 A-counts
% Disruption in Binding [13]: 0%
A-counts [14]: 1880 A-counts
B1: NRF2 isoform 1 (wild-type full-length), FLAG-tagged (protein)
chain: MMDLELPPPGLPSQQDMDLIDILWRQDIDLGVSREVFDFSQRRKEYELEKQKKLEKERQEQLQKEQEKAFFAQLQLDEETGEFLPIQPAQHIQSETSGSANYSQVAHIPKSDALYFDDCMQLLAQTFPFVDDNEVSSATFQSLVPDIPGHIESPVFIATNQAQSPETSVAQVAPVDLDGMQQDIEQVWEELLSIPELQCLNIENDKLVETTMVPSPEAKLTEVDNYHFYSSIPSMEKEVGNCSPHFLNAFEDSFSSILSTEDPNQLTVNSLNSDATVNTDFGDEFYSAFIAEPSISNSMPSPATLSHSLSELLNGPIDVSDLSLCKAFNQNHPESTAEFNDSDSGISLNTSPSVASPEHSVESSSYGDTLLGLSDSEVEELDSAPGSVKQNGPKTPVHSSGDMVQPLSPSQGQSTHVHDAQCENTPEKELPVSPGHRKTPFTKDKHSSRLEAHLTRDELRAKALHIPFPVEKIINLPVVDFNEMMSKEQFNEAQLALIRDIRRRGKNKVAAQNCRKRKLENIVELEQDLDHLKDEKEKLLKEKGENDKSLHLLKKQLSTLYLEVFSMLRDEDGKPYSPSEYSLQQTRDGNVFLVPKSKKPDVKKN

S/N [24]: 0.9
S/N [25]: 1.7
S/N [26]: 2.7
S/N [27]: 3.2
B4: NRF2 isoform 1 (I28V full-length), FLAG-tagged (protein)
chain: MMDLELPPPGLPSQQDMDLIDILWRQDVDLGVSREVFDFSQRRKEYELEKQKKLEKERQEQLQKEQEKAFFAQLQLDEETGEFLPIQPAQHIQSETSGSANYSQVAHIPKSDALYFDDCMQLLAQTFPFVDDNEVSSATFQSLVPDIPGHIESPVFIATNQAQSPETSVAQVAPVDLDGMQQDIEQVWEELLSIPELQCLNIENDKLVETTMVPSPEAKLTEVDNYHFYSSIPSMEKEVGNCSPHFLNAFEDSFSSILSTEDPNQLTVNSLNSDATVNTDFGDEFYSAFIAEPSISNSMPSPATLSHSLSELLNGPIDVSDLSLCKAFNQNHPESTAEFNDSDSGISLNTSPSVASPEHSVESSSYGDTLLGLSDSEVEELDSAPGSVKQNGPKTPVHSSGDMVQPLSPSQGQSTHVHDAQCENTPEKELPVSPGHRKTPFTKDKHSSRLEAHLTRDELRAKALHIPFPVEKIINLPVVDFNEMMSKEQFNEAQLALIRDIRRRGKNKVAAQNCRKRKLENIVELEQDLDHLKDEKEKLLKEKGENDKSLHLLKKQLSTLYLEVFSMLRDEDGKPYSPSEYSLQQTRDGNVFLVPKSKKPDVKKN

Continued, binder first:

B2: NRF2 isoform 1 (I86V full-length), FLAG-tagged (protein)
chain: MMDLELPPPGLPSQQDMDLIDILWRQDIDLGVSREVFDFSQRRKEYELEKQKKLEKERQEQLQKEQEKAFFAQLQLDEETGEFLPVQPAQHIQSETSGSANYSQVAHIPKSDALYFDDCMQLLAQTFPFVDDNEVSSATFQSLVPDIPGHIESPVFIATNQAQSPETSVAQVAPVDLDGMQQDIEQVWEELLSIPELQCLNIENDKLVETTMVPSPEAKLTEVDNYHFYSSIPSMEKEVGNCSPHFLNAFEDSFSSILSTEDPNQLTVNSLNSDATVNTDFGDEFYSAFIAEPSISNSMPSPATLSHSLSELLNGPIDVSDLSLCKAFNQNHPESTAEFNDSDSGISLNTSPSVASPEHSVESSSYGDTLLGLSDSEVEELDSAPGSVKQNGPKTPVHSSGDMVQPLSPSQGQSTHVHDAQCENTPEKELPVSPGHRKTPFTKDKHSSRLEAHLTRDELRAKALHIPFPVEKIINLPVVDFNEMMSKEQFNEAQLALIRDIRRRGKNKVAAQNCRKRKLENIVELEQDLDHLKDEKEKLLKEKGENDKSLHLLKKQLSTLYLEVFSMLRDEDGKPYSPSEYSLQQTRDGNVFLVPKSKKPDVKKN
S/N [15]: 2.6
S/N [16]: 1.1
Binding Percentage [17]: 93.7%
A-counts (NRF2 plus KEAP1) [18]: 2580 A-counts
A-counts (NRF2 plus KEAP1) [19]: 2110 A-counts

B3: NRF2 isoform 1 (Q75R full-length), FLAG-tagged (protein)
chain: MMDLELPPPGLPSQQDMDLIDILWRQDIDLGVSREVFDFSQRRKEYELEKQKKLEKERQEQLQKEQEKAFFAQLRLDEETGEFLPIQPAQHIQSETSGSANYSQVAHIPKSDALYFDDCMQLLAQTFPFVDDNEVSSATFQSLVPDIPGHIESPVFIATNQAQSPETSVAQVAPVDLDGMQQDIEQVWEELLSIPELQCLNIENDKLVETTMVPSPEAKLTEVDNYHFYSSIPSMEKEVGNCSPHFLNAFEDSFSSILSTEDPNQLTVNSLNSDATVNTDFGDEFYSAFIAEPSISNSMPSPATLSHSLSELLNGPIDVSDLSLCKAFNQNHPESTAEFNDSDSGISLNTSPSVASPEHSVESSSYGDTLLGLSDSEVEELDSAPGSVKQNGPKTPVHSSGDMVQPLSPSQGQSTHVHDAQCENTPEKELPVSPGHRKTPFTKDKHSSRLEAHLTRDELRAKALHIPFPVEKIINLPVVDFNEMMSKEQFNEAQLALIRDIRRRGKNKVAAQNCRKRKLENIVELEQDLDHLKDEKEKLLKEKGENDKSLHLLKKQLSTLYLEVFSMLRDEDGKPYSPSEYSLQQTRDGNVFLVPKSKKPDVKKN
A-counts (NRF2 plus KEAP1) [20]: 1090 A-counts
A-counts (NRF2 plus KEAP1) [21]: 588 A-counts
S/N [22]: 2
A-counts (NRF2 plus KEAP1) [23]: 1090 A-counts
